One block for each binder: values may come before it.
What was measured:
[1] = biological target: T1, recombinant human FcγRIIb (R&D Systems #1875-CD-050) (human, UniProt P31994 46-217, limits assumed); experiment: AlphaScreen, FcγRIIb on nickel acceptor beads
T1 construct: Bought; also called CD32b; recombinant, soluble, human FcγRIIb
T1 sequence (looked up): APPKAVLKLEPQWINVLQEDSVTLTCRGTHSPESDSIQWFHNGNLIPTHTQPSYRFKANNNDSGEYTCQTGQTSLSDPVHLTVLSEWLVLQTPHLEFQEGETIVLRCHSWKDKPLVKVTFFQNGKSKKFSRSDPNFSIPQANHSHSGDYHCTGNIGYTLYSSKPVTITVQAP
Procedure: (§1) FcγRIIa (CD32a) AlphaScreen—Nickel acceptor beads (Perkin Elmer #6760619C) were diluted 1:50 in assay buffer (PBS, pH 7.4, 4 mg/ml BSA, 0.01% Tween-20), and 27.5 μl were added to each well of a Nunc V-bottom polypropylene plate (VWR # 62409-108) (Powers G., Notebook 9006, pp. 169-175, 182-185). A 2.0 μg/ml solution of recombinant human His-tagged FcγRIIa (R&D Systems #1330-CD-050) was prepared in assay buffer and 27.5 μl added to each well of a separate Nunc V bottom polypropylene plate. Titrations of test Abs were prepared in the Nunc V bottom polypropylene plate starting at 30 μg/ml. A 2 μg/ml solution of biotinylated goat F(ab′)₂ anti-human IgG F(ab′)₂ (Jackson Immunoresearch #109-066-097) was prepared in assay buffer and 27.5 μl added to each well of another Nunc V bottom polypropylene plate. A 1:50 dilution of streptavidin donor beads (PerkinElmer # 6760002) was prepared in assay buffer and 27.5 μl added to each well of another Nunc V bottom polypropylene plate. A volume of 5 μl of each reagent was added to the corresponding quadrants of a low-volume, non-binding white 384-well plate (Corning # 3673) in the following order: acceptor beads, FcγRIIa, test Ab, biotinylated anti-human IgG F(ab′)₂, and streptavidin donor beads. The plates were incubated for 30 minutes with shaking and the O.D.s determined using an Envision plate reader.
FcγRIIb (CD32b) AlphaScreen—The assay was performed as described above for FcγRIIa except that FcγRIIa was replaced with FcγRIIb (R&D Systems #1875-CD-050).

[2] = biological target: T2, recombinant human His-tagged FcγRIIa (R&D Systems #1330-CD-050) (human, UniProt P12318 36-218, limits assumed); experiment: AlphaScreen, His-tagged FcγRIIa on nickel acceptor beads
T2 construct: Bought; also called CD32a; recombinant, soluble, human FcγRIIa
T2 sequence (looked up): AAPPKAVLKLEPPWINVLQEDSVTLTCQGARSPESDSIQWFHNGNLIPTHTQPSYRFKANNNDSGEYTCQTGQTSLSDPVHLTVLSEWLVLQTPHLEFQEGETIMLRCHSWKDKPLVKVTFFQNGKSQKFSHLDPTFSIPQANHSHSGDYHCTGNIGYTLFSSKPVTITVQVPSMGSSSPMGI
Procedure: as §1

[3] = biological target: T3, recombinant polyhistidine tagged mouse FcγRI (R&D Systems) (mouse, UniProt P26151 25-297); experiment: ELISA, His-tagged mouse receptor captured on copper-coated plate
T3 construct: Bought; also called murine FcγRI
T3 sequence (looked up): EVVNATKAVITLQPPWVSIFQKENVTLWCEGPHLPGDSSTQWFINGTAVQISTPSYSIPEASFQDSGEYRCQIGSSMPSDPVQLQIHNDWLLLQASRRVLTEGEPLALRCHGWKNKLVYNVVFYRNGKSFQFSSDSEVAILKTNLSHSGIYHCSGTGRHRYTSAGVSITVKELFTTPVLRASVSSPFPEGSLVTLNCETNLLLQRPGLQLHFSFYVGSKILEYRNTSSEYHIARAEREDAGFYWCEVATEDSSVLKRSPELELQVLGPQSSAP
Procedure: (§2) Commercially-available recombinant polyhistidine tagged mouse FcγRI, FcγRII, FcγRIII, and FcγRIV (R&D Systems) were diluted to 1 μg/ml in PBS and 100 μl/well was captured onto copper-coated plates (Pierce) overnight at 4° C. Plates were washed three times with wash buffer (0.15M NaCl, 0.02% Tween 20). Non-specific binding was blocked using 200 μl/well SuperBlock (Pierce) for 15 minutes at room temperature. Plates were washed three times as above. […] Plates were washed three times as above to remove unbound mAb. CNTO 860 variants that bound to plated receptors were detected using 100 μl/well HRP-labeled goat F(ab′)₂ anti-human IgG F(ab′)₂ (Jackson ImmunoResearch) diluted 1:5,000 in PBS incubated at room temperature for 1 hour. Plates were washed five times using wash buffer as above, and developed using 100 μl/well TMB Stable Stop substrate (Fitzgerald Industries) stopped with 0.5M HCl. Absorbance was detected at 450 nm.
(§3) All binding assays were in an ELISA format, with recombinant soluble receptor captured on coated EIA plates.

[4] = biological target: T4, recombinant polyhistidine tagged mouse FcγRII (R&D Systems) (mouse, UniProt P08101 40-217, limits assumed); experiment: as above
T4 construct: Bought; also called FcRII
T4 sequence (looked up): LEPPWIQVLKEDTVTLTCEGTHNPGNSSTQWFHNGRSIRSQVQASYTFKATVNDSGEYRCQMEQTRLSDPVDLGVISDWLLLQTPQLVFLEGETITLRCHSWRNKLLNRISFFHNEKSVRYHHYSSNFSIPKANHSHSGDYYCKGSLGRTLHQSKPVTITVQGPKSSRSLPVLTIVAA
Procedure: as §2, §3

[5] = biological target: T5, recombinant polyhistidine tagged mouse FcγRIII (R&D Systems) (mouse, UniProt P08508 31-215); experiment: as above
T5 construct: Bought
T5 sequence (looked up): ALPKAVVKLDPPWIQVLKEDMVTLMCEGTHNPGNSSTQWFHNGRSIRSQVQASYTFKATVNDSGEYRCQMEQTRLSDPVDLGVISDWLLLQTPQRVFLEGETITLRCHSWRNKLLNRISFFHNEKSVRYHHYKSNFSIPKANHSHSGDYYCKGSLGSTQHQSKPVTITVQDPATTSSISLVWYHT
Procedure: as §2, §3

[6] = biological target: T6, recombinant polyhistidine tagged mouse FcγRIV (R&D Systems) (mouse, UniProt A0A0B4J1G0 21-203); experiment: as above
T6 construct: Bought
T6 sequence: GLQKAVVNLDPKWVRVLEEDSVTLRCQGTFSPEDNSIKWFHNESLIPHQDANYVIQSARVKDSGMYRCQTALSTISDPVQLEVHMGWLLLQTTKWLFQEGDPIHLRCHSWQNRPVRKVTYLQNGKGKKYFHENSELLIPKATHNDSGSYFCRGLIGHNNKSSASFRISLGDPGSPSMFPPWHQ
Procedure: as §2, §3

- concentration (ng/ml) required for an O.D. value of 200,000 [1]: 120 ng/mL
- concentration (ng/ml) required for a set O.D. signal [2]: 63 ng/mL
- ECOD1 (concentration required for an O.D. value of 1.0) [3]: 12000 ng/mL
- ECOD1 (concentration required for an O.D. value of 1.0) [4]: 3000 ng/mL
- ECOD1 (concentration required for an O.D. value of 1.0) [5]: 4000 ng/mL
- ECOD1 (concentration required for an O.D. value of 1.0) [6]: 30 ng/mL
B2: YB2/0-CNTO 860 WT (antibody, human IgG1, kappa)
heavy: not shown
light: DIQMTQSPSSLSASVGDRVTITCKASQDIRKYLNWYQQKPGKAPKLLIYYATSLADGVPSRFSGSGSGTDYTFTISSLQPEDIATYYCLQHGESPYTFGQGTKLEITRTVAAPSVFIFPPSDEQLKSGTASVVCLLNNFYPREAKVQWKVDNALQSGNSQESVTEQDSKDSTYSLSSTLTLSKADYEKHKVYACEVTHQGLSSPVTKSFNRGEC
modifications: Heavy chain N297 carries the YB2/0-type N-linked glycan (40-60% fucosylated); not carried by the letters.
notes: Anti-human tissue factor human IgG1/kappa; stably expressed in rat YB2/0 cells (p2401/p2402; YB2/0 Abs typically 40-60% fucosylated), purified by protein A; also called WT (YB2/0 cell-derived); WT from YB2/0 cells; copies: 2 + 2

- concentration (ng/ml) required for an O.D. value of 200,000 [1]: 60 ng/mL
- concentration (ng/ml) required for a set O.D. signal [2]: 90 ng/mL
- ECOD1 (concentration required for an O.D. value of 1.0) [3]: 3000 ng/mL
- ECOD1 (concentration required for an O.D. value of 1.0) [4]: 1600 ng/mL
- ECOD1 (concentration required for an O.D. value of 1.0) [5]: 6000 ng/mL
- ECOD1 (concentration required for an O.D. value of 1.0) [6]: 7 ng/mL
B3: YB2/0-CNTO 860 V264I/I332E (antibody, human IgG1, kappa)
heavy: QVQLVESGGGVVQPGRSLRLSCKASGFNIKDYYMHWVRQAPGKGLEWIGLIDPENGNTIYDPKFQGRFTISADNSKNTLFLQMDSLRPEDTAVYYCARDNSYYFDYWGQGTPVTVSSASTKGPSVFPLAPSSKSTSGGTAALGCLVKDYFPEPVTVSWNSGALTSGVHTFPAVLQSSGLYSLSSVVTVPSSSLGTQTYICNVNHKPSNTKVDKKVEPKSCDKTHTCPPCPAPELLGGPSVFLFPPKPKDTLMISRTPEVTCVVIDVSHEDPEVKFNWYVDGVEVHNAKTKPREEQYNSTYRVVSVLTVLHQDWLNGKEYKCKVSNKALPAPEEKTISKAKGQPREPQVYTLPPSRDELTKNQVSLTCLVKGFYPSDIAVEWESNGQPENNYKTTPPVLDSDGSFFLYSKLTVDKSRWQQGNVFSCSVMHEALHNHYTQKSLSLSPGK
light: B2 light
modifications: N-linked glycan at heavy chain Asn297 (YB2/0-type, low fucose); not carried by the letters
notes: IgG1/kappa Fc variant; stably expressed in YB2/0 cells (p4180/p2402); EU numbering; also called V264I/I332E (YB2/0 cell-derived); copies: 2 + 2

The remaining lines, values behind:

B1: YB2/0-CNTO 860 A330Y (antibody, human IgG1, kappa)
heavy: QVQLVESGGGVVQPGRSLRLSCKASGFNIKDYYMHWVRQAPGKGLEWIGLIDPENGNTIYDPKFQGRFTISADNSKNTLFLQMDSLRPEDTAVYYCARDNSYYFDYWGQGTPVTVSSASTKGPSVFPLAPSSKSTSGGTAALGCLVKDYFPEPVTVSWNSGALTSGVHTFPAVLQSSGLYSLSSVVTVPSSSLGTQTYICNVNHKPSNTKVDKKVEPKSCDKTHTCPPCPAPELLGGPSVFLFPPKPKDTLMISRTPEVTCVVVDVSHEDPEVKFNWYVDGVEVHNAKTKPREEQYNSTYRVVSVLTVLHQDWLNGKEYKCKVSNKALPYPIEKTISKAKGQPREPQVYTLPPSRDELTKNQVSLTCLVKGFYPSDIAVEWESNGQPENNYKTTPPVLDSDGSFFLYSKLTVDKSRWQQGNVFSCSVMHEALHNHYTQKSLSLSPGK
light: B2 light
modifications: N-linked glycan at heavy chain Asn297 (YB2/0-type, low fucose); not carried by the letters
notes: IgG1/kappa Fc variant; stably expressed in YB2/0 cells (p4176/p2402); EU numbering; also called A330Y (YB2/0 cell-derived); copies: 2 + 2
- concentration (ng/ml) required for an O.D. value of 200,000 [1]: 165 ng/mL
- concentration (ng/ml) required for a set O.D. signal [2]: 78 ng/mL
- ECOD1 (concentration required for an O.D. value of 1.0) [3]: 4000 ng/mL
- ECOD1 (concentration required for an O.D. value of 1.0) [4]: 6000 ng/mL
- ECOD1 (concentration required for an O.D. value of 1.0) [5]: 6500 ng/mL
- ECOD1 (concentration required for an O.D. value of 1.0) [6]: 30 ng/mL

B4: YB2/0-CNTO 860 I332E (antibody, human IgG1, kappa)
heavy: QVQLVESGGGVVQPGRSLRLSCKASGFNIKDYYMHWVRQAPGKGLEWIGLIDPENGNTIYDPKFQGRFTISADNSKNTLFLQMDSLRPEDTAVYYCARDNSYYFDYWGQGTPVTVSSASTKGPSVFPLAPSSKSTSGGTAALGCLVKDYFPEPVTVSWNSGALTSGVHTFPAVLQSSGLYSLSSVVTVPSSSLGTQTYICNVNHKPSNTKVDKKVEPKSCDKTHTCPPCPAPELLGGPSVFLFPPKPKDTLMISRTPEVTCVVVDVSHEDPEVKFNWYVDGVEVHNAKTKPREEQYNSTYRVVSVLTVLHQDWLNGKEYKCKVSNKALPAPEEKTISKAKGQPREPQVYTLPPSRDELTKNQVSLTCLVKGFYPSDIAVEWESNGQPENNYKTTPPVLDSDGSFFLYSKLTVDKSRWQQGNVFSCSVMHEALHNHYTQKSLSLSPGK
light: B2 light
modifications: Heavy chain N297 carries the YB2/0-type low-fucose N-linked glycan; not carried by the letters.
notes: IgG1/kappa Fc variant; stably expressed in YB2/0 cells (p4148/p2402), low-fucose glycan; EU numbering; also called I332E (YB2/0 cell-derived); I332E from YB2/0 cells; copies: 2 + 2
- concentration (ng/ml) required for an O.D. value of 200,000 [1]: 75 ng/mL
- concentration (ng/ml) required for a set O.D. signal [2]: 60 ng/mL
- ECOD1 (concentration required for an O.D. value of 1.0) [3]: 5000 ng/mL
- ECOD1 (concentration required for an O.D. value of 1.0) [4]: 700 ng/mL
- ECOD1 (concentration required for an O.D. value of 1.0) [5]: 600 ng/mL
- ECOD1 (concentration required for an O.D. value of 1.0) [6]: 7 ng/mL

B5: YB2/0-CNTO 860 S239D/I332E (antibody, human IgG1, kappa)
heavy: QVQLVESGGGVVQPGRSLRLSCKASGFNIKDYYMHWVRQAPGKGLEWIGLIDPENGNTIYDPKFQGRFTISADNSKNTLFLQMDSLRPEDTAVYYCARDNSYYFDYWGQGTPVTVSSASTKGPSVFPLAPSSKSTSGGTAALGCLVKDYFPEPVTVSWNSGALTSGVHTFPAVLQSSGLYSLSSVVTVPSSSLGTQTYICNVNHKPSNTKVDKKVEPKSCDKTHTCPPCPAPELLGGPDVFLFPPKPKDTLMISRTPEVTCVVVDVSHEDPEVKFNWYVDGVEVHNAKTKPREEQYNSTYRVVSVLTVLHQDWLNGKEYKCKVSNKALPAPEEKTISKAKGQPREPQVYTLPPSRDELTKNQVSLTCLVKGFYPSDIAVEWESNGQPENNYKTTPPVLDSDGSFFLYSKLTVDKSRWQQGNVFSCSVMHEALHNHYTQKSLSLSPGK
light: B2 light
modifications: N-linked glycan at heavy chain Asn297 (YB2/0-type, low fucose); not carried by the letters
notes: IgG1/kappa Fc variant; stably expressed in YB2/0 cells (p4179/p2402); EU numbering; also called S239D/I332E (YB2/0 cell-derived); copies: 2 + 2
- concentration (ng/ml) required for an O.D. value of 200,000 [1]: 20 ng/mL
- concentration (ng/ml) required for a set O.D. signal [2]: 60 ng/mL
- ECOD1 (concentration required for an O.D. value of 1.0) [3]: 1900 ng/mL
- ECOD1 (concentration required for an O.D. value of 1.0) [4]: 6000 ng/mL
- ECOD1 (concentration required for an O.D. value of 1.0) [5]: 2800 ng/mL
- ECOD1 (concentration required for an O.D. value of 1.0) [6]: 7 ng/mL

Source: patent US20080311034A1 (published 2008)
